For 3 substances, Kd and stoichiometry N results are on record in paper PMC5105194.

Experiment [1] deals with retromer cargo selective complex VPS26/VPS29/VPS35 (UniProt Q96QK1). Put plainly: ITC; TBC proteins (100∼200 μM) injected into retromer proteins (8–16 μM); 20 °C; 20 mM Tris pH 8, 200 mM NaCl, 5 mM βME; one set of sites model.
The target of experiment [2] is AlexaFluor488-labelled Rab7-GMPPNP (aa 1–186-Cys and Cys143Ser) (UniProt P51149). Put plainly: fluorescence polarisation; fluorescence anisotropy, direct binding: proteins titrated into 50 nM AlexaFluor488-labelled Rab7-GMPPNP; 20 °C; 20 mM Tris pH 8.0, 100 mM NaCl, 2 mM MgCl2, 5 mM βME; single-site 1:1 model. For orientation: Fluorescence polarisation rises when a labelled molecule tumbles more slowly, as on binding a larger partner.
Chain of AlexaFluor488-labelled Rab7-GMPPNP (aa 1–186-Cys and Cys143Ser) (P51149 other isoform, or with tags, fused parts or gaps C143S): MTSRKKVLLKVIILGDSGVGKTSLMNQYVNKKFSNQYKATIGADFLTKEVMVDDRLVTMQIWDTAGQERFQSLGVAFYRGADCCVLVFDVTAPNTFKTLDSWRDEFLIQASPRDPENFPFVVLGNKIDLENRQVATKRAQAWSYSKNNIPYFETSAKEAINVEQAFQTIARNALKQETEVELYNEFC

Experiment [3] concerns the target TBC1d5^TBC/CSC complex (UniProt Q96QK1). Put plainly: fluorescence polarisation; fluorescence anisotropy, competition: unlabelled Rab7-GMPPNP titrated into 8 μM TBC1d5/CSC and 50 nM labelled Rab7-GMPPNP; 20 °C; competitive binding one-site model.

Chain of TBC1d5^TBC (Q92609 whole entry, the tested form may be a part): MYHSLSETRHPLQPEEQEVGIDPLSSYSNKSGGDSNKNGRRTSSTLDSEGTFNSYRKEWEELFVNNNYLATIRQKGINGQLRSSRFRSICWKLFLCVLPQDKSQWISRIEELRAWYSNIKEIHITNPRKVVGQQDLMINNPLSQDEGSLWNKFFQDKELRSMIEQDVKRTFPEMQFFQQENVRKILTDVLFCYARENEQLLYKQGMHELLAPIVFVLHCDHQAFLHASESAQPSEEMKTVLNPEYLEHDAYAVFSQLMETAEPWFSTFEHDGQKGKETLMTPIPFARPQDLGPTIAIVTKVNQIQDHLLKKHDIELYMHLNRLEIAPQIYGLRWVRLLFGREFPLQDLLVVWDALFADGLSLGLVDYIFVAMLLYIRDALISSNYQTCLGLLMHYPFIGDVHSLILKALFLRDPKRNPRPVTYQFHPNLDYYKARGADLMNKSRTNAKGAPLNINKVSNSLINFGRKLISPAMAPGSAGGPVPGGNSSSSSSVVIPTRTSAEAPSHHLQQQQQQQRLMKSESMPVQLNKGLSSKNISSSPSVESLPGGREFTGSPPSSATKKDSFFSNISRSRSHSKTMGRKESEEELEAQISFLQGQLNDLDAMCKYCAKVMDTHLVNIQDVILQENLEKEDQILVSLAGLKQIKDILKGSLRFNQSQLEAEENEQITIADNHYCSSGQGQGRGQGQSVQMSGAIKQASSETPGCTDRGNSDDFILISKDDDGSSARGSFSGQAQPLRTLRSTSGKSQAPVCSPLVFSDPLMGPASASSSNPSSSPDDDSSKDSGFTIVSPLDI

A word on the Kd: it is a measure of binding affinity in units of concentration. Lower therefore signals a tighter complex. A word on the stoichiometry N: it is a count of units in the complex or per binding partner. As for “TBC1d5^TBC (from UniProt Q92609 1-795) (domain or fragment)”, in experiment [1], the Kd stood at 0.22 µM and the stoichiometry N worked out at 1. “TBC1d5^TBC/CSC complex (from UniProt Q96QK1 1-796; Q9UBQ0 1-182; O75436 1-327)” returned a Kd in experiment [2] of 11.5 µM. Substance “unlabelled Rab7-GMPPNP (from UniProt P51149 1-86) (natural protein)” came in with a Kd in experiment [3] of 36 µM. This counts as double-digit micromolar.
